Several values for one entry are separate records, joined by “and”; a condition that tells them apart may be missing. Equal entries are not always repeated.

T1: Kap121 (full-length) (Saccharomyces cerevisiae, UniProt P32337 1-1089)
T1 construct: Kap121 (karyopherin), Saccharomyces cerevisiae, full-length; source: E. coli BL21-CodonPlus(DE3)-RIL, purified (HisTrap HP, TEV cleavage, HiTrap Q, Superdex 200); not shown: SUMO-His6, N-terminal, cleaved
T1 sequence (looked up): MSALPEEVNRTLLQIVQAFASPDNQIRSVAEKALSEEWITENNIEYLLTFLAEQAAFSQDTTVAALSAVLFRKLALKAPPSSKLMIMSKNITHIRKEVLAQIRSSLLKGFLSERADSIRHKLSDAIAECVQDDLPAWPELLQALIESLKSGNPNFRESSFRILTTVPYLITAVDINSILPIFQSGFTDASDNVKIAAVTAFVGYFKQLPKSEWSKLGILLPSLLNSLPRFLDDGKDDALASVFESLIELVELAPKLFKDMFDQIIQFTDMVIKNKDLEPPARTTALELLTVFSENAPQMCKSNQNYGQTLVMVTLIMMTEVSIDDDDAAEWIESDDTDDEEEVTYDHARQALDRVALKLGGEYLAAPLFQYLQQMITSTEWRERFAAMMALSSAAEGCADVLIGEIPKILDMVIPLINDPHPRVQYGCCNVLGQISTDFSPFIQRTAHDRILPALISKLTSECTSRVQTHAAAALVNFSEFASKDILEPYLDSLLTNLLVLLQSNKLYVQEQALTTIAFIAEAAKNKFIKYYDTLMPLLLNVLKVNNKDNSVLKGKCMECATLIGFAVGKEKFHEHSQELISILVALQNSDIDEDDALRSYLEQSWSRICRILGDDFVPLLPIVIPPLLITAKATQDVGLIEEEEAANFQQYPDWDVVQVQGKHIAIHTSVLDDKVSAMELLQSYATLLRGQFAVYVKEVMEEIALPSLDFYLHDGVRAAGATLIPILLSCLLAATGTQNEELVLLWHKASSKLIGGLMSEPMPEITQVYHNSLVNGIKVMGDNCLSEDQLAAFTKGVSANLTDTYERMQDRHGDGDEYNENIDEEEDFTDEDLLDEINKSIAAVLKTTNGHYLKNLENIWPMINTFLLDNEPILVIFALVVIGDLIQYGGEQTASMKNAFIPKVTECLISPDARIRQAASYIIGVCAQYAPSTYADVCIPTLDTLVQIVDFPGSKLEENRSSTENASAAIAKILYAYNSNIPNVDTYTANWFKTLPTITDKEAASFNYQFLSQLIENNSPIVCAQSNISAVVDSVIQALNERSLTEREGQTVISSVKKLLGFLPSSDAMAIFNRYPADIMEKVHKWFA

T2: Nup53 fragment 53NTD (N-terminal IDR) (Saccharomyces cerevisiae)
T2 chain: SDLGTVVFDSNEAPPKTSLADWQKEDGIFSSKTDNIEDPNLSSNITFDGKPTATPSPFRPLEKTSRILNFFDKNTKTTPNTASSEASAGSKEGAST

T3: Kap121 (full-length) (Saccharomyces cerevisiae), P32337
T3 chain: T1 sequence (looked up)

B1: Nup53 fragment 53CTD (domain or fragment)
chain: RNAEFKVSKNSTSFKNPRRLEIKDGRSLFLRNRGKIHS
B2: Nup53 53core (near-intact Nup53 construct encompassing the N- and C-terminal IDRs and the RRM domain) (domain or fragment)
chain: SDLGTVVFDSNEAPPKTSLADWQKEDGIFSSKTDNIEDPNLSSNITFDGKPTATPSPFRPLEKTSRILNFFDKNTKTTPNTASSEASAGSKEGASTNWDDHAIIIFGYPETIANSIILHFANFGEILEDFRVIKDFKKLNSKNMSKSPSLTAQKYPIYTGDGWVKLTYKSELSKSRALQENGIIMNGTLIGCVSYSPAALKQLASLKKSEEIINNKTSSQTSLSSKDLSNYRKTEGIFEKAKAKAVTSKVRNAEFKVSKNSTSFKNPRRLEIKDGRSLFLRNRGKIHS
B3: Nic96 fragment (domain or fragment)
chain: GNNILNSNESRLNVNENNILREKFENYARIVFQFNNSRQANGNFDIANEFISILSSANGTRNAQLLESWKILESMKSKDINIVEVGKQYLEQQFLQYTDNLYKKNMNEGLATNVNKIKSFIDTKLKKADKSWKISNLTVINGVPIWALIFYLLRAGLIKEALQVLVENKANIKKVEQSFLTYFKAYASSKDHGLPVEYSTKLHTEYNQHIKSSLDGDPYRLAVYKLIGRCDLSRKNIPAVTLSIEDWLWMHLMLIKEKDAENDPVYERYSLEDFQNIIISYGPSRFSNYYLQTLLLSGLYGLAIDYTYTFSEMDAVHLAIGLASLKLFKIDSSTRLTKKPKRDIRFANILANYTKSFRYSDPRVAVEYLVLITLNEGPTDVELCHEALRELVLETKEFTVLLGKIGRDGARIPGVIEERQPLLHVRDEKEFLHTITEQAARRADEDGRIYDSILLYQLAEEYDIVITLVNSLLSDTLSASDLDQPLVGPDDNSETNPVLLARRMASIYFDNAGISRQIHVKNKEICMLLLNISSIRELYFNKQWQETLSQMELLDLLPFSDELSARKKAQDFSNLDDNIVKNIPNLLIITLSCISNMIHILNESKYQSSTKGQQIDSLKNVARQCMIYAGMIQYRMPRETYSTLINIDVSL
B4: Nup157 fragment 157N (domain or fragment)
chain: MYSTPLKKRIDYDRETFTASASLGGNRLRNRPRDDQNNGKPNLSSRSFLSERKTRKDVLNKYGEAGNTIESELRDVTTHVKISGLTSSEPLQLASEFVQDLSFRDRNTPILDNPDYYSKGLDYNFSDEVGGLGAFTPFQRQQVTNIPDEVLSQVSNTEIKSDMGIFLELNYCWITSDNKLILWNINNSSEYHCIDEIEHTILKVKLVKPSPNTFVSSVENLLIVATLFDIYILTISFNDRTHELNIFNTGLKVNVTGFNVSNIISYERTGQIFFTGATDGVNVWELQYNCSENLFNSKSNKICLTKSNLANLLPTKLIPSIPGGKLIQKVLEGDAGTEEETISQLEVDQSRGVLHTLSTKSIVRSYLITSNGLVGPVLIDAAHIRRGMNALGVKNSPLLSNRAFKIAKIVSISMCENNDLFLAVITTTGVRLYFKGSISRRSIGSLKLDSVKFPPTSISSSLEQNKSFIIGHHPLNTHDTGPLSTQKASSTYINTTCASTIISPGIYFTCVRKRANSGELSKGITNKALLENKEEHKLYVSAPDYGILKNYGKYVENTALLDTTDEIKEIVPLTRSFNYTSTPQGYANVFASQYSAEPLKVAVLTSNALEIYCYRTPDEVFESLIENPLPFIHSYGLSEACSTALYLACKFNKSEHIKSSALAFFSAGIPGVVEIKPKSSRESGSVPPISQNLFDKSGECDGIVLSPRFYGSALLITRLFSQIWEERVFVFKRASKTEKMDAFGISITRPQVEYYLSSISVLADFFNIHRPSFVSFVPPKGSNAITASDAESIAMNALILLINSIKDALSLINVFYEDIDAFKSLLNTLMGAGGVYDSKTREYFFDLKFHDLFTPNAKTKQLIKEILIEVVNANIASGTSADYIVNVLKERFG
B5: Nup53 C-terminal IDR (53C) (domain or fragment)
chain: KKSEEIINNKTSSQTSLSSKDLSNYRKTEGIFEKAKAKAVTSKVRNAEFKVSKNSTSFKNPRRLEIKDGRSLFLRNRGKIHS
modifications: not checked

Series [1] concerns the target human Nup35 RRM domain (human). Briefly: SEC-MALS; human Nup35 RRM domain at 15 mg/ml on Superdex 200 10/300 GL in the ITC binding buffer, room temperature.
Series [2] deals with T1, Kap121 (full-length). Briefly: ITC; single titrations, single-site 1:1 binding model where fitted; 20 mM Hepes pH 7.5, 150 mM NaCl, 0.5 mM TCEP; 15°C; Kap121 150 μM with Nup53 fragments 15 μM. The conditions noted are these: both partners purified. Background: In ITC the heat of successive injections is recorded.
Series [3] concerns the molecule itself. Kind of series: ITC; dimer to monomers: concentrated 53core injected in 2-μl increments into buffer, three protein concentrations, monomer-dimer equilibrium model; constant printed for 2A ↔ A2; 15°C.
Series [4] deals with the molecule itself. The description is as above. The source holds these as a separate data set.
The target in series [5] is T1, Kap121 (full-length). Kind of series: ITC; forward and reverse titrations with Kap121 at various protein concentrations, global analysis with a multiple-equilibrium model (53core dimerization, monomer constants fixed at the 53C values); 15°C. Conditions: both partners purified.
Series [6] has as its target T4, 53core·Kap121 complex (stoichiometric 53core:Kap121 mixture) (Saccharomyces cerevisiae, UniProt Q03790 1-475; P32337 1-1089). Kind of series: ITC; Nic96 titrated into stoichiometric 53core:Kap121 or 53core:HsKapβ1 mixtures; single-site 1:1 model; apparent constants; 15°C. Conditions: both partners purified.
In series [7] the target is 53core·HsKapβ1 complex (stoichiometric 53core:HsKapβ1 mixture) (Saccharomyces cerevisiae | human, UniProt Q03790 1-475; Q14974 1-876). The description is as above. The conditions noted are these: both partners purified.
In series [8] the target is T2, Nup53 fragment 53NTD (N-terminal IDR). Briefly: ITC; single titrations, single-site 1:1 binding model where fitted; 20 mM Hepes pH 7.5, 150 mM NaCl, 0.5 mM TCEP; 15°C; Kap121 150 μM with Nup53 fragments 15 μM. Conditions: both partners purified.
Series [9] addresses B2. The description is as above. Conditions: both partners purified.
For series [10], the target named is T4, 53core·Kap121 complex (stoichiometric …). Kind of series: ITC; Nic96 titrations into 53core:Kap121 mixtures, global analysis with a multiple-equilibrium model that separates monomeric and dimeric 53core·Kap121 complexes; 15°C. Conditions: both partners purified.
Series [11] deals with B1. Kind of series: ITC; single titrations, single-site 1:1 binding model where fitted; 20 mM Hepes pH 7.5, 150 mM NaCl, 0.5 mM TCEP; 15°C; Kap121 150 μM with Nup53 fragments 15 μM. Conditions: both partners purified.
Series [12] addresses T3, Kap121 (full-length) (Saccharomyces …). Briefly: ITC; 53C·Kap121 forward and reverse titrations at various protein concentrations, global analysis with a two-mode binding model (1:1 and 2:1 53C:Kap121); 20 mM Hepes pH 7.5, 150 mM NaCl, 0.5 mM TCEP; 15°C.

Sequence of 53core·HsKapβ1 complex (stoichiometric 53core:HsKapβ1 mixture) (Q14974 1-442, one chain of several): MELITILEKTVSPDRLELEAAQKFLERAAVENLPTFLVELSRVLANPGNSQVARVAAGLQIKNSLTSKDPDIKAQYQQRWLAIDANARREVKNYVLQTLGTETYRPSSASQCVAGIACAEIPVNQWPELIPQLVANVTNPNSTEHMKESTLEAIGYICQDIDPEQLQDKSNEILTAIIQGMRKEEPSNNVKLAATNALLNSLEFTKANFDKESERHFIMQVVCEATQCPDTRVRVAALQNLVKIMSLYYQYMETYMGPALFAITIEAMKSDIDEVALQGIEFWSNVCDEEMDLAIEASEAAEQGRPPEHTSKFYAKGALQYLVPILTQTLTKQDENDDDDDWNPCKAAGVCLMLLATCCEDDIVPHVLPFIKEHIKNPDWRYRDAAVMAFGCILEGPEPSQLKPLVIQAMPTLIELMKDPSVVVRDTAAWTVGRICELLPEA

In general, stoichiometry N refers to a count of units in the complex or per binding partner. In series [1], “human Nup35 RRM domain (domain or fragment)” registered a stoichiometry N of 2.

With B1, in [2], the Ka turned out to be 210000 M⁻¹, the “fold weaker than the canonical NLS peptide” value was approximately 45 fold and the “stoichiometry N” value was 1.

For the molecule B2, the “stoichiometry N” value in series [3] worked out at 2. In [4], this molecule had a Ka of 10000 M⁻¹ and a dH of 6.5 kcal/mol. In series [5], the “KA of the 53core dimer with one Kap121 (A2 + B ↔ A2B)” value was determined as 5.6e+07 M⁻¹, the “dH of A2 + 2B ↔ A2B2” value was -1.3 kcal/mol and the “dH of A2 + B ↔ A2B” value was found to be 16.3 kcal/mol.

Regarding B3, in series [6], the Ka amounted to 130000 M⁻¹ and the dH is -5.2 kcal/mol. Moreover, in series [7], the Ka is 100000 M⁻¹ and the dH is -5.1 kcal/mol. Further, in series [8], the Ka came out at 700000 M⁻¹ and the “stoichiometry N” value is 1. In [9], this molecule displayed a Ka of 990000 M⁻¹ and a dH of -4.4 kcal/mol. Also, in [10], the “KA for the dimeric 53core·Kap121 complexes (A2Bi + C ↔ A2BiC)” value is 120000 M⁻¹, the “KA for the monomeric 53core·Kap121 complex (AB + C ↔ ABC)” value is 200000 M⁻¹, the “dH for the dimeric 53core·Kap121 complexes (A2Bi + C ↔ A2BiC)” value was -2.5 kcal/mol and the “dH for the monomeric 53core·Kap121 complex (AB + C ↔ ABC)” value is -6.7 kcal/mol.

Consider B4, for which, in series [11], the Ka is 1.6e+06 M⁻¹ and the “stoichiometry N” value was 1. Moreover, in [9], the Ka was found to be 1.1e+06 M⁻¹ and the dH is -10.1 kcal/mol.

B5: in [12], the K of the 2:1 mode (2A + B ↔ A2*B) was determined as 1.9e+11 M^-2, the KA of the 1:1 mode (A + B ↔ AB) came out at 4.2e+06 M⁻¹, the KA per IDR binding (square root of the 2:1 constant) was 440000 M⁻¹ and the dH of the 1:1 mode (A + B ↔ AB) was -2.7 kcal/mol. Moreover, in [12], the dH of the 2:1 mode (2A + B ↔ A2*B) turned out to be 4.2 kcal/mol; the stoichiometry N was 2 and 1.
